Test results reported in patent US6569419B2, “Methods for promoting production of myelin by Schwann cells” (ZymoGenetics, Inc., priority 2000, dated 2003).

System: primary Schwann cells
Test: MBP induction in pure Schwann cell cultures (Western blot, densitometry)
Format: cell-based, rat
Conditions: for MBP accumulation (in words): in the absence of progesterone pretreatment; for Mean MBP induction (as percent of progesterone induction): pure Schwann cells, 48 h, mean ± SD
Procedure: Primary Schwann cell cultures and dorsal root ganglia (DRG)-Schwann cell co-cultures were established. Rat primary Schwann cells were isolated as described by Einheber et al., J. Cell Biol. 123:1223-1236 (1994). Schwann cells were grown in 100 mm poly-L-lysine coated plates in Dulbecco's modified Eagles medium (DMEM) supplemented with 10% fetal bovine serum (FBS), pituitary extract (1 mg/ml) and 10 μM forskolin; up to 80-90% confluency.
The effect of Zcyto7 was tested in pure Schwann cell culture and in a co-culture of DRG and Schwann cells. Primary Schwann cells were grown to 80-90% confluency in 100 mm plates as described above. 12 h before treatment media was changed to 10 ml of N2 (defined medium) with or without 1 μM progesterone. The Zcyto7 solutions were added as 1.1 ml of 10×solution in N2 media, and cells were incubated for 48 hours (h). Cells were washed once with Hanks balanced salt solution (HBSS). The cell suspension was frozen on dry ice, thawed, pelleted and resuspended in 100 μl of lysis buffer, 125 mM tris (hydroxymethyl) aminomethane HCl (Tris HCl) pH7.0, 15% sucrose, 4% sodium dodecyl sulfate (SDS), 10 mM ethylenediaminetetraacetic acid (EDTA). Lysates were boiled for 5 minutes (min) on a water bath and cooled on ice. The protein concentration was determined using 4 μl in a BioRad BCA assay. Each sample was then supplemented with dithiothreitol (DTT) to a final concentration of 10 mM phenylmethylsulfonyl fluoride (PMSF)—to 2 mM, pepstatin and leupeptin—to 10 μg/ml.
60 μg of protein from each sample were separated on 4-12% Tris-Glycin NOVEX gels at 125 V constant for 1.5 h. Each gel contained vehicle control, vehicle supplemented with progesterone control, and randomly chosen samples from treatment groups. Transfer to poly (vinylidine difluoride) (PVFD) membrane was carried out according to the NOVEX electrotransfer protocol, at 25 V, for 40 min. Membranes were rinsed with tris buffered saline (TBS) for 3 min, and blocked with TBS/0.1% TWEEN-20/2% BSA for 1 h. Membranes were then incubated with 1:1000 dilution of anti-MBP mouse monoclonal IgG (Boehringer, Mannheim) in TBS/0.1% TWEEN-20, 0.5% BSA overnight, at 4° C. After washing 4 times for 30 min with TBS/0.1% TWEEN-20, membranes were incubated with anti-mouse horseradish peroxidase conjugate (1:20,000 dilution in TBS/0.1% TWEEN-20, incubated with SUPERSIGNAL chemiluminescent HRP substrate (Pierce Chemical Co., Rockford, Ill.) and exposed to Kodak X-Ray film for 15-20 min.
Density of myelin basic protein (MBP) bands was measured on LYNX Densitometer (Applied imaging) with ILLUMA System and expressed as percent progesterone-induced control MBP.
In experiment 1, the effect of the 4 different solutions of Zcyto7 on MBP accumulation was evaluated in pure Schwann cell cultures, with and without progesterone pretreatment. Solution A275F was evaluated in experiment 1 at 1 ng/ml, 10 ng/ml, 100 ng/ml and 1 μg/ml.
Four controls were included in each experiment: test vehicle alone, vehicle supplemented with progesterone, vehicle supplemented with IL-17, and vehicle supplemented with progesterone and IL-17 [See J. Immunol, 150:5445-5456 (1993)]. Three replicates were set up per each condition.

[1] = 100 ng/ml, without progesterone

B1: A258 G: Solution of human Zcyto7 expressed in BHK cells, 0.089 mg/ml of PBS+0.1% BSA at pH 6.0 (protein, UniProt Q9UHF5 21-180, looked up)
Interleukin-17B: QPRSPKSKRKGQGRPGPLAPGPHQVPLDLVSRMKPYARMEEYERNIEEMVAQLRNSSELAQRKCEVNLQLWMSNKRSLSPWGYSINHDPSRIPVDLPEARCLCLGCVNPFTMQEDRSMVSVPVFSQVPVRRRLCPPPPRTGPCRQRAVMETIAVGCTCIF
100 ng/ml
  MBP accumulation (in words): significantly induced MBP accumulation
[1]
  Mean MBP induction (as percent of progesterone induction): 210 ± 115.20% of progesterone induction
Prog + 100 ng/ml
  Mean MBP induction (as percent of progesterone induction): 152 ± 19.38% of progesterone induction

B2: A275 F: Solution of murine Zcyto7 expressed in BHK cells, 1 mg/ml of PBS at pH 6.0 (protein, UniProt Q9QXT6 23-180, looked up)
Interleukin-17B: RNTKGKRKGQGRPSPLAPGPHQVPLDLVSRVKPYARMEEYERNLGEMVAQLRNSSEPAKKKCEVNLQLWLSNKRSLSPWGYSINHDPSRIPADLPEARCLCLGCVNPFTMQEDRSMVSVPVFSQVPVRRRLCPQPPRPGPCRQRVVMETIAVGCTCIF
1 ng/ml, without progesterone
  Mean MBP induction (as percent of progesterone induction): 102.40 ± 21.33% of progesterone induction
10 ng/ml, without progesterone
  Mean MBP induction (as percent of progesterone induction): 123.40 ± 50.34% of progesterone induction
100 ng/ml
  MBP accumulation (in words): significantly induced MBP accumulation
[1]
  Mean MBP induction (as percent of progesterone induction): 210.60 ± 9708% of progesterone induction
1 μg/ml, without progesterone
  Mean MBP induction (as percent of progesterone induction): 170.90 ± 49.63% of progesterone induction
Prog + 1 ng/ml
  Mean MBP induction (as percent of progesterone induction): 48.77 ± 45.44% of progesterone induction
Prog + 10 ng/ml
  Mean MBP induction (as percent of progesterone induction): 121.00 ± 78.16% of progesterone induction
Prog + 100 ng/ml
  Mean MBP induction (as percent of progesterone induction): 278.00 ± 95.43% of progesterone induction
Prog + 1 μg/ml
  Mean MBP induction (as percent of progesterone induction): 280.80 ± 62.95% of progesterone induction
